Tests used:
[1] = Non-enzymatic conversion of ADP-ribosylarginine to ornithine, HPLC and amino acid analysis; assay type: physicochemical
arginase = target: T1, arginase (Homo sapiens, UniProt P05089); test: Incubation with manganese-activated arginase, products by amino acid analysis and MS; assay type: biochemical; conditions: manganese-activated arginase 0.7 U, pH 9.5, 10 minutes, 37° C.
T1 sequence (P05089 1-322): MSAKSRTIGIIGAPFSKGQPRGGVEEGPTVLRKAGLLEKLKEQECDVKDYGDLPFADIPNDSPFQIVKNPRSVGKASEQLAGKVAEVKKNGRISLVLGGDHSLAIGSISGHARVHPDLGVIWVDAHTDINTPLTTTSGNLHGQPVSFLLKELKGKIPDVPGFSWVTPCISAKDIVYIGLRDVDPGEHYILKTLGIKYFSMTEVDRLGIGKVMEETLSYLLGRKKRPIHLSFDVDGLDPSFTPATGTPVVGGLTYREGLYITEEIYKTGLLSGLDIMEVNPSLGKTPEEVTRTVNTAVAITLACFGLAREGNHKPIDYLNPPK
Method: Arginase, found predominantly in liver, catalyzes the hydrolysis of arginine to ornithine in the urea cycle. The enzyme has been reported to require free arginine (Jenkinson et al., Comp. Biochem. Physiol. B Biochem. Mol. Biol. 114:107-132, 1996). HNP-1 was tested as a potential substrate for arginase. HNP-1 (1.4 nmol), mono-ADP-ribosylated-HNP-1 (1 nmol), ADP-ribosylarginine (18 μM), and arginine (5 mM) were each incubated with manganese-activated arginase (0.7 U) at pH 9.5 in 200 μl for 10 minutes at 37° C.

ART1 = target: T2, ART1 (Mus musculus, UniProt Q60935); test: Substrate test for ART1
T2 sequence (Q60935 23-290 limits assumed): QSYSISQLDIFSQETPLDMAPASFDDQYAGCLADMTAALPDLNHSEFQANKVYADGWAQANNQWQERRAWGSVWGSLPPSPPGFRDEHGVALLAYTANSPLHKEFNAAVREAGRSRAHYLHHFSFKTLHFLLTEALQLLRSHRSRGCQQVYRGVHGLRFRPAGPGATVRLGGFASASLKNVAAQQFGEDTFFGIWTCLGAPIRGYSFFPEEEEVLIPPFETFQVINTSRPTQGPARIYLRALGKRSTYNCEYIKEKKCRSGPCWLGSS

[2] = Incubation of HPLC-purified mono- and di-ADP-ribosyl-HNP-1 at pH 7 or 9, products analysed by HPLC/MS; assay type: physicochemical
Method: HNP-1 was incubated overnight at 30° C. with 5 mM NAD in 150 μl of 50 mM potassium phosphate, pH 7.5 and ART1. Reactions were terminated by addition of guanidine HCl to a final concentration of 6 M. Products were separated by HPLC and analyzed by mass spectrometry (MS).
HNP-1 was reduced, cleaved by trypsin, and analyzed by reverse phase chromatography-mass spectrometry as described (Paone et al., Proc. Natl. Acad. Sci. USA 99:8231-8235, 2002), except that the reverse phase column was a Zorbax 300SB-C18, 2.1×50 mm, 3.5 micron, and the mass spectrometer was an Agilent model G1969 with a time of flight detector. Mass spectra were deconvoluted with Agilent software MassHunter version 2, and the fraction of each species was calculated from the areas of the deconvoluted peaks.
To verify that ART1 (or an enzymatic contaminant) was not required for ornithine formation, HPLC-purified mono- and di-modified HNP-1 were incubated for 24 hours at 37° C. at pH 7 or 9 and the reaction products were analyzed by HPLC (FIG. 4, Table 1). Di-ADP-ribosylated-HNP-1 degraded to mono-ADP-ribosylated-HNP-1-ornithine of 3940 molecular mass at pH 7 and the amount was greater at pH 9 (FIG. 4A-D). About 50% of di-ADP-ribosylated-HNP-1 degraded to mono-ADP-ribosylated-HNP-1-ornithine at pH 9, with ADP-ribosylated arginine 14 and ornithine at position 24 or ADP-ribosylated arginine 24 and ornithine at position 14.

## NC(=NCCC[C@H](N)C(=O)O)N[C@H]1O[C@H](COP(=O)(O)OP(=O)(O)OC[C@H]2O[C@@H](n3cnc4c(N)ncnc43)[C@H](O)[C@@H]2O)[C@@H](O)[C@H]1O [ADP-ribosylarginine]
[1]; 6N HCl, 37° C., 24 hours
  product of incubation in acid: Arginine was cleaved
[1]; incubation at pH 7 or pH 8
  amount of ornithine generated: less than at pH 9
[1]; pH 9, 24 hours, 37° C., amino acid analysis without prior acid hydrolysis
  maximal amount of ornithine, of initial ADP-ribosylarginine: 21%
arginase
  ornithine formation by arginase (substrate or not): ornithine only in the reaction that contained free arginine

## N=C(N)NCCCCN [agmatine]
ART1
  substrate for ART1: served as substrates

## N=C(N)NCCC[C@H](N)C(=O)O [arginine]
[1]; 24 hours, 37° C., 20 mM potassium phosphate pH 9
  ornithine formation after incubation with free ADP-ribose: No ornithine was identified
ART1
  substrate for ART1: served as substrates
arginase
  ornithine formation by arginase (substrate or not): ornithine only in the reaction that contained free arginine

## NCCC[C@H](N)C(=O)O [ornithine, Ornithine]
ART1
  substrate for ART1: did not

## ADPR-HNP: HNP-1 ADP-ribosylated on arginine 14
[2]; pH 7, time 0 h
  percent of species ADPR-HNP at the end of the incubation: 100%
  percent of species ADPR-HNP-Orn at the end of the incubation: 0%
  percent of species Di-ADPR-HNP at the end of the incubation: 0%
  percent of species Di-Orn-HNP at the end of the incubation: 0%
  percent of species HNP at the end of the incubation: 0%
  percent of species HNP-Orn at the end of the incubation: 0%
[2]; pH 7, time 24 h
  percent of species ADPR-HNP at the end of the incubation: 82 ± 13%
  percent of species ADPR-HNP-Orn at the end of the incubation: 0%
  percent of species Di-ADPR-HNP at the end of the incubation: 0%
  percent of species Di-Orn-HNP at the end of the incubation: 0%
  percent of species HNP at the end of the incubation: 0%
  percent of species HNP-Orn at the end of the incubation: 18 ± 13%
[2]; pH 9, time 0 h
  percent of species ADPR-HNP at the end of the incubation: 100%
  percent of species ADPR-HNP-Orn at the end of the incubation: 0%
  percent of species Di-ADPR-HNP at the end of the incubation: 0%
  percent of species Di-Orn-HNP at the end of the incubation: 0%
  percent of species HNP at the end of the incubation: 0%
  percent of species HNP-Orn at the end of the incubation: 0%
[2]; pH 9, time 24 h
  percent of species ADPR-HNP at the end of the incubation: 61 ± 9%
  percent of species ADPR-HNP-Orn at the end of the incubation: 0%
  percent of species Di-ADPR-HNP at the end of the incubation: 0%
  percent of species Di-Orn-HNP at the end of the incubation: 0%
  percent of species HNP at the end of the incubation: 0%
  percent of species HNP-Orn at the end of the incubation: 39 ± 9%
arginase
  ornithine formation by arginase (substrate or not): ornithine only in the reaction that contained free arginine

Source: US8828380B2, “Method for the treatment of pulmonary disease and method of producing proteins of use therein” (The United States of America, as represented by the …, priority 2009, dated 2014)
